{"source": "patent US20060263345A1", "about": "“Butyrylcholinesterase variant polypeptides with increased catalytic efficiency and methods of use” (priority 2003, published 2006)", "molecules": {"B1": {"name": "A328Y (protein, UniProt P06276 29-602, looked up, variant A328Y)", "Cholinesterase": "EDDIIIATKNGKVRGMNLTVFGGTVTAFLGIPYAQPPLGRLRFKKPQSLTKWSDIWNATKYANSCCQNIDQSFPGFHGSEMWNPNTDLSEDCLYLNVWIPAPKPKNATVLIWIYGGGFQTGTSSLHVYDGKFLARVERVIVVSMNYRVGALGFLALPGNPEAPGNMGLFDQQLALQWVQKNIAAFGGNPKSVTLFGESAGAASVSLHLLSPGSHSLFTRAILQSGSFNAPWAVTSLYEARNRTLNLAKLTGCSRENETEIIKCLRNKDPQEILLNEAFVVPYGTPLSVNFGPTVDGDFLTDMPDILLELGQFKKTQILVGVNKDEGTYFLVYGAPGFSKDNNSIITRKEFQEGLKIFFPGVSEFGKESILFHYTDWVDDQRPENYREALGDVVGDYNFICPALEFTKKFSEWGNNAFFYYFEHRSSKLPWPEWMGVMHGYEIEFVFGLPLERRDNYTKAEEILSRSIVKRWANFAKYGNPNETQNNSTSWPVFKSTEQKYLTLNTESTRIMTKLRAQQCRFWTSFFPKVLEMTGNIDEAEWEWKAGFHRWNNYMMDWKNQFNDYTSKKESCVGL"}, "B2": {"name": "A328W/Y332M/S287G/F227A (protein)", "chain": "B1 Cholinesterase with F227A, S287G, Y328W, Y332M", "modifications": "Butyrylcholinesterase variant"}, "B3": {"name": "S287G (protein, UniProt P06276 29-602, looked up, variant S287G)", "Cholinesterase": "B1 Cholinesterase with S287G, Y328A"}, "B4": {"name": "A328W (protein, UniProt P06276 29-602, looked up, variant A328W)", "Cholinesterase": "B1 Cholinesterase with Y328W"}}, "key": {"Sprague Dawley rats": {"system": "Sprague Dawley rats", "experiment": "pilot studies, lethal dose of infused cocaine", "settings": "rat, i.v. infusion", "procedure": "(§1) Briefly, unilateral/bilateral jugular cannulations were performed under isoflurane anesthesia (max. 20 min) on 350 g male :Sprague Dawley®SD® rats (Harlan Sprague Dawley, Inc.) The animals were allowed to recover for 24 hours before studies commenced. […] One minute later, the cannula was connected to an infusion pump (Harvard Apparatus) and cocaine (HCI salt) was infused at 6 mls/hr (2 mg/kg/min) for 15 minutes corresponding to a total dose equal to 30 mg/kg. The time-to-onset for slight convulsions, strong convulsions and death were recorded. […] In a second series of studies, 0.5 mg/kg of the A328W/Y332M/S287G/F227A variant was administered at various time points after initiation of the 30mglkg cocaine infusion and gross observations recorded."}, "cocaine toxicity": {"system": "cocaine toxicity", "settings": "rat, infusion of cocaine at 1 mg/kg/min, catecholamine levels standardized; cited from earlier work"}, "[1]": {"settings": "read-out: Km for cocaine hydrolysis, previously published, cited from earlier work"}, "[2]": {"experiment": "Km for cocaine hydrolysis by horse butyrylcholinesterase, isotope tracer assay, Lineweaver-Burk plot", "assay_type": "biochemical", "settings": "2 hour incubation at 37° C.; x intercept = -1/Km", "description": "(§2) At the conclusion of the isotope tracer assay, an aliquot of the reaction mix is acidified in order to take advantage of the solubility difference between the product and the substrate at pH 3.0. […] Prospect, Ill.) while [3H]-cocaine is not."}, "[3]": {"settings": "cited from earlier work"}, "[4]": {"experiment": "microtiter isotope tracer [3H]-cocaine hydrolysis assay of immobilized butyrylcholinesterase variants", "assay_type": "biochemical", "settings": "for Relative Activity of butyrylcholinesterase variants (WT = 1) with enhanced cocaine hydrolase activity: relative to wild-type = 1, catalytic efficiency (Vmax/Km), [3H]-cocaine microtiter assay", "description": "as §2\nThe supernatants isolated from each of the butyrylcholinesterase variant library clones contains variable butyrylcholinesterase enzyme concentrations.\nAt least three approaches are used to either increase the assay sensitivity or the assay signal.\nKm values for (−)-cocaine are determined at 37° C. Vmax and Km values are calculated using Sigma Plot (Jandel Scientific, San Rafael, Calif.). The number of active sites of butyrylcholinesterase is determined by the method of residual activity using echothiopate iodide or diisopropyl fluorophosphates as titrants, as described previously by Masson et al., Biochemistry 36: 2266-2277 (1997). […] Purified human butyrylcholinesterase is used as the standard for the ELISA quantitation assay. The catalytic rate constant, kcat, is calculated by dividing Vmax by the concentration of active sites."}, "cocaine-induced toxicity": {"system": "cocaine-induced toxicity", "experiment": "in vivo cocaine toxicity, cocaine infusion 30 mg/kg in cannulated rats", "settings": "rat; for effect of therapeutic treatment on cocaine-induced toxicity: FIG. 9; for effect of pre-treatment on cocaine-induced toxicity: i.v. 0.1-0.5 mg/kg, 1 minute before cocaine 2 mg/kg/min for 15 minutes, Chi-squared test p<0.001, FIG. 8", "procedure": "as §1\nThe variant was administered at the indicated doses, 1 minute prior to infusion of 30 mg/kg cocaine (2 mg/kg/min for 15 minutes)."}}, "note": "Numbering of substitutions follows the chain as printed. Numbers in names are those of the source. Entries after “also recorded” stand apart in the source; their conditions may differ. Read-outs that look alike come from different tables or passages of the source."}
{"molecule": "COC(=O)[C@H]1[C@@H](OC(=O)c2ccccc2)C[C@@H]2CC[C@H]1N2C", "note": "[cocaine]", "values": [{"measurement": "lethal dose of cocaine", "setting": "Sprague Dawley rats", "value": "approximately 25 mg/kg"}, {"measurement": "LD50", "setting": "cocaine toxicity", "value": 10, "unit": "mg/kg"}, {"measurement": "LD90", "setting": "cocaine toxicity", "value": 16, "unit": "mg/kg"}]}
{"molecule": "horse butyrylcholinesterase", "values": [{"measurement": "Km", "setting": "[1]; Gatley 1991", "value": 38, "unit": "µM"}, {"measurement": "Km", "setting": "[1]; Xie et al. 1999", "value": "45 ± 5", "unit": "µM"}, {"measurement": "Km", "setting": "[2]", "value": "~37.6", "unit": "µM"}]}
{"molecule": "B1", "values": [{"measurement": "increase in cocaine hydrolysis activity compared to human butyrylcholinesterase", "setting": "[3]; Xie et al. 1999", "value": "four"}, {"measurement": "cocaine hydrolysis activity (in words)", "setting": "[3]; recombinantly prepared mutations tested previously", "value": "increased cocaine hydrolysis activity"}]}
{"molecule": "B2", "values": [{"measurement": "increase in cocaine hydrolysis activity relative to butyrylcholinesterase", "setting": "[4]; compared to human butyrylcholinesterase SEQ ID NO: 44, approximate values", "value": "one-hundred"}, {"measurement": "effect of therapeutic treatment on cocaine-induced toxicity", "setting": "cocaine-induced toxicity; 0.5 mg/kg administered at 8 minutes into the 30 mg/kg cocaine infusion (after first slight convulsions)", "value": "full protection"}, {"measurement": "effect of therapeutic treatment on cocaine-induced toxicity", "setting": "cocaine-induced toxicity; 0.5 mg/kg administered at later time points than 8 minutes, 0.5 mg/kg", "value": "decreased in ability to protect"}, {"measurement": "effect of therapeutic treatment on cocaine-induced toxicity", "setting": "cocaine-induced toxicity; 0.5 mg/kg administered at later time points than 8 minutes, listed as AME-359, 0.5 mg/kg", "value": "decreased in ability to protect"}, {"measurement": "effect of pre-treatment on cocaine-induced toxicity", "setting": "cocaine-induced toxicity", "value": "decreasing cocaine-toxicity; also recorded: statistically significant protection against cocaine"}, {"measurement": "effect of pre-treatment on cocaine-induced toxicity", "setting": "cocaine-induced toxicity; listed as AME-359", "value": "statistically significant protection against cocaine"}, {"measurement": "time-of-onset of symptoms associated with cocaine-induced toxicity", "setting": "cocaine-induced toxicity; pre-treatment 1 minute before 30 mg/kg cocaine infusion, FIG. 12", "value": "delaying the time-of-onset of symptoms"}]}
{"molecule": "B3", "values": [{"measurement": "Relative Activity of butyrylcholinesterase variants (WT = 1) with enhanced cocaine hydrolase activity", "setting": "[4]", "value": 4.1}]}
{"molecule": "B4", "values": [{"measurement": "Relative Activity of butyrylcholinesterase variants (WT = 1) with enhanced cocaine hydrolase activity", "setting": "[4]", "value": 7}]}
